Among the data in paper PMC6778065 are fold PLA volume against BIN1iso1 (after normalization with BIN1 immunofluorescence), other: percent increase of PLA:Tau ratio and other: percent decrease of PLA:Tau ratio values, retold here.

In assay [1] the target is Tau (endogenous, rat primary hippocampal neurons) (rat (endogenous in primary hippocampal neurons)) (UniProt P19332). The assay can be described thus: proximity ligation; PLA in fixed rat primary hippocampal neuronal cultures (DIV7, 14, 21; lentiviral shBIN1 or overexpression at DIV8, read at DIV14; compound screen incl. Cyclosporin A and U0126 at DIV21); primary antibodies BIN1-99D (mouse) and Tau (rabbit); PLA volume or PLA:Tau ratio.

The target in assay [2] is Tau (endogenous, primary neurons) (UniProt P19332). Description: proximity ligation assay, high-content screen. The note with it: reference: DMSO-treated neurons; sites T348.
Assay [3] addresses BIN1 (endogenous, primary neurons) (UniProt O08839). The assay can be described thus: proximity ligation assay, high-content screen. The note with it: reference: DMSO-treated neurons; sites T231.

Tau (endogenous, rat primary hippocampal neurons) (rat (endogenous in primary hippocampal neurons)), sequence (P19332 other isoform, or with tags, fused parts or gaps): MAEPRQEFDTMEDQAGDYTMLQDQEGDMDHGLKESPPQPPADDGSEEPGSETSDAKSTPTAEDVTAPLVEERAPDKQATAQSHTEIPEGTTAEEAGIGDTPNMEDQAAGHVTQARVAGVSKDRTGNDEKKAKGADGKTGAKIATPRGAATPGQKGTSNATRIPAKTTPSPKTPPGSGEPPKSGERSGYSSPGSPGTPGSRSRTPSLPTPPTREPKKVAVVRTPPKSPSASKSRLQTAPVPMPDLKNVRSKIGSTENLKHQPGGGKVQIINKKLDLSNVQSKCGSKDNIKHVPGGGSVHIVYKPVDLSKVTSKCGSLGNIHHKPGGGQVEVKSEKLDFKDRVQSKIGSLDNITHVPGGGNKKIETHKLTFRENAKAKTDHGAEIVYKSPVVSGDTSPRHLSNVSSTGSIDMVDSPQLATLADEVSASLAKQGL
BIN1iso1 phosphomimetic T348E, overexpressed in primary neurons, sequence (O08539 whole entry, stated change not applied): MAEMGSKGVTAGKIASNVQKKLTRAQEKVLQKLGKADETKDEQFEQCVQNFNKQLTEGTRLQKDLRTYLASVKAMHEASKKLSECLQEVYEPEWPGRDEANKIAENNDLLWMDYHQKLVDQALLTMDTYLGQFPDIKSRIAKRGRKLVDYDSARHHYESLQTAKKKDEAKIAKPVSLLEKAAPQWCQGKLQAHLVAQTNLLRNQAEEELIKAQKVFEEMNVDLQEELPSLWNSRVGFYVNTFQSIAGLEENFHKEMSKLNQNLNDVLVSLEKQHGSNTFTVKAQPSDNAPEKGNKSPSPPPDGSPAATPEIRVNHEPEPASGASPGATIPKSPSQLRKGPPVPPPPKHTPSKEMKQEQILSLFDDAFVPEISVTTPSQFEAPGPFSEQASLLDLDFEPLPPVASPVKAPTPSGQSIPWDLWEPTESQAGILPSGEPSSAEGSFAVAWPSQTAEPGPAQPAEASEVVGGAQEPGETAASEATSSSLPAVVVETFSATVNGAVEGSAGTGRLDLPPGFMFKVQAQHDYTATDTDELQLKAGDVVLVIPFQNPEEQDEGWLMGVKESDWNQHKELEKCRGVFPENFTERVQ

As to “BIN1iso1 phosphomimetic T348E, overexpressed in primary neurons (from UniProt O08539-1 1-588) (natural protein)”, the fold PLA volume against BIN1iso1 (after normalization with BIN1 immunofluorescence) in assay [1] worked out at 2.1 fold.

In the case of “BIN1 (endogenous, primary neurons) (from UniProt O08839) Cyclosporin A-treated neurons (calcineurin inhibitor)”, the other: percent increase of PLA:Tau ratio in assay [2] is 42.6%.

Turning to “Tau (endogenous, primary neurons) (from UniProt P19332) U0126-treated neurons (MEK inhibitor)”, in assay [3], the other: percent decrease of PLA:Tau ratio came to 36.2%.
